Sequences and labels used below:
T1: mouse RNase 1 (mouse (M. musculus), UniProt P00683 26-149)
T1 sequence (looked up): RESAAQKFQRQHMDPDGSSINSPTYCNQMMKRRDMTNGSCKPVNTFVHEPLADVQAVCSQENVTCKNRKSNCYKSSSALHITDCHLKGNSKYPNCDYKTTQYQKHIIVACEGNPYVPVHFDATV

T2: human RNase 1 (human, UniProt P07998 29-156)
T2 sequence: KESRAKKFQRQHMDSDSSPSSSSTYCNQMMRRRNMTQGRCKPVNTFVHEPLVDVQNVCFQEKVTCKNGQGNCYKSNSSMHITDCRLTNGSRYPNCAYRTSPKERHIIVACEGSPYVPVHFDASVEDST

T3: bovine RNase A (bovine, UniProt P61823 27-150)
T3 sequence (looked up): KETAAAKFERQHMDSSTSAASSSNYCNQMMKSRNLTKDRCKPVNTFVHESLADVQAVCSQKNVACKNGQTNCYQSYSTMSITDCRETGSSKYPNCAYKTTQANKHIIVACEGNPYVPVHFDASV

B1: mouse ribonuclease inhibitor (natural protein, mouse (M. musculus))
chain: MSLDIQCEQLSDARWTELLPLIQQYEVVRLDDCGLTEVRCKDISSAVQANPALTELSLRTNELGDGGVGLVLQGLQNPTCKIQKLSLQNCGLTEAGCGILPGMLRSLSTLRELHLNDNPMGDAGLKLLCEGLQDPQCRLEKLQLEYCNLTATSCEPLASVLRVKADFKELVLSNNDLHEPGVRILCQGLKDSACQLESLKLENCGITAANCKDLCDVVASKASLQELDLSSNKLGNAGIAALCPGLLLPSCKLRTLWLWECDITAEGCKDLCRVLRAKQSLKELSLASNELKDEGARLLCESLLEPGCQLESLWIKTCSLTAASCPYFCSVLTKSRSLLELQMSSNPLGDEGVQELCKALSQPDTVLRELWLGDCDVTNSGCSSLANVLLANRSLRELDLSNNCMGGPGVLQLLESLKQPSCTLQQLVLYDIYWTNEVEEQLRALEEERPSLRIIS
B2: human ribonuclease inhibitor (natural protein, human (H. sapiens))
chain: MSLDIQSLDIQCEELSDARWAELLPLLQQCQVVRLDDCGLTEARCKDISSALRVNPALAELNLRSNELGDVGVHCVLQGLQTPSCKIQKLSLQNCCLTGAGCGVLSSTLRTLPTLQELHLSDNLLGDAGLQLLCEGLLDPQCRLEKLQLEYCSLSAASCEPLASVLRAKPDFKELTVSNNDINEAGVRVLCQGLKDSPCQLEALKLESCGVTSDNCRDLCGIVASKASLRELALGSNKLGDVGMAELCPGLLHPSSRLRTLWIWECGITAKGCGDLCRVLRAKESLKELSLAGNELGDEGARLLCETLLEPGCQLESLWVKSCSFTAACCSHFSSVLAQNRFLLELQISNNRLEDAGVRELCQGLGQPGSVLRVLWLADCDVSDSSCSSLAATLLANHSLRELDLSNNCLGDAGILQLVESVRQPGCLLEQLVLYDIYWSEEMEDRLQALEKDKPSLRVIS
B3: A19C bovine RNase 1, labeled with diethylfluorescein (DEFIA) (enzyme, UniProt P61823 27-150, looked up)
chain: T3 sequence (looked up) with A19C
modifications: diethylfluorescein (DEFIA) on the introduced cysteine 19
B4: bovine ribonuclease inhibitor (natural protein, bovine (B. taurus))
chain: MKLDIQCEQLSDARWTELLPLIQQYEVVRLDDCGLTEVRCKDIGSALQANASLTELSLRTNELGDGGVLLVLQGLQSPTCKIQKLSLQNCCLTEAGCGVLPGVLRSLPTLRELHLSDNPLGDAGLRLLCEGLLDPRCRLEKLQLEYCSLTAASCEPLAAVLRATRDLKELVVSNNDIGEAGVQALCRGLAESACQLETLKLENCGLTAANCKDLCGIVASQASLKDLDLGSNRLGDAGLAELCPGLLSPSSQLRTLWLWECDLTVSGCRELCRVLQAKEALKELSLAGNSLGDEGAQLLCESLLQPGCQLESLWVKSCGFTAACCQHFSSMLTQNKHLLELQLSSNPLGDAGVHVLCQALGQPGTVLRVLWVGDCELTNSSCGGLASLLLASPSLRELDLSNNGLGDPGVLQLLGSLEQPACSLEQLVLYDIYWTEAVDERLRAVEESKPGLRIIS
B5: S19C mouse RNase 1, labeled with diethylfluorescein (DEFIA) (enzyme, mouse (M. musculus), UniProt P00683 26-149, looked up)
chain: T1 sequence (looked up) with S19C
modifications: diethylfluorescein (DEFIA) on the introduced cysteine 19
B6: P19C human RNase 1, labeled with diethylfluorescein (DEFIA) (enzyme, UniProt P07998 29-156, looked up)
chain: T2 sequence with P19C
modifications: diethylfluorescein (DEFIA) on the introduced cysteine 19

Test [1] concerns the target anole RNase 1 (anole lizard (Anolis carolinensis)).
Test [2] addresses chicken RNase A-1 (chicken (G. gallus)).
For a further test, the target named is T1, mouse RNase 1.
Another test has as its target T2, human RNase 1.
Test [3] has as its target B1. The test is described as follows: fluorescence dissociation-rate assay.
The target of test [4] is B2. The test is described as follows: fluorescence dissociation-rate assay.
Another test has as its target T3, bovine RNase A.

In general, stoichiometry N refers to a count of units in the complex or per binding partner.

Numbering of substitutions follows the chain as printed. Names may count otherwise.

The molecule “anole ribonuclease inhibitor (natural protein)” registered a stoichiometry N in test [1] of 1. “chicken ribonuclease inhibitor (natural protein)” displayed a stoichiometry N in test [2] of 1.

With B1, the “stoichiometry N” value in the test with mouse RNase 1 amounted to 1. B2: the “stoichiometry N” value in the test with human RNase 1 came to 1.

With B3, the binding result in test [3] and in test [4] was “binds” in each case. Consider B4, for which the “stoichiometry N” value in the test with bovine RNase A turned out to be 1. As to B5, in test [4], the binding result is listed as “binds”. For the molecule B6, the binding result in test [3] is “binds”.

The values are drawn from article PMC4219644 (Journal of molecular biology, 2014).
